Results taken from patent US20210213145A1 (TAYU HUAXIA BIOTECH MEDICAL GROUP, published 2021).

Key:
[1] = target: T1, mouse PD-L1 on transfected CHO cells (mouse, UniProt Q9EP73 19-290); assay: flow cytometry on CHO/mPD-L1 cells, one antibody amount, not given
T1 construct: whole, on cells; also called mPD-L1; CHO/mPD-L1
Procedure: CHO cells transfected with mouse PD-L1 (CHO/mPD-L1) were used to assess the species cross-reactivity of the anti-hPD-L1 mAb with mouse PD-L1. The cells were incubated with the anti-hPD-L1 mAb prior to flow cytometry analysis.

hPD-L1mIg fusion protein [2] = target: T2, hPD-L1mIg fusion protein (human, UniProt Q9NZQ7 19-238); assay: SPR, Biacore T200; hPD-L1 mIg amine-coupled on CM5 chip, antibody injected at 1-32 nM, full kinetic analysis
T2 construct: also called hPD-L1 mIg protein; biotin-labeled hPD-L1-mouse Fc fusion protein; not shown: mouse Ig (Fc) part
T2 sequence (Q9NZQ7 19-238): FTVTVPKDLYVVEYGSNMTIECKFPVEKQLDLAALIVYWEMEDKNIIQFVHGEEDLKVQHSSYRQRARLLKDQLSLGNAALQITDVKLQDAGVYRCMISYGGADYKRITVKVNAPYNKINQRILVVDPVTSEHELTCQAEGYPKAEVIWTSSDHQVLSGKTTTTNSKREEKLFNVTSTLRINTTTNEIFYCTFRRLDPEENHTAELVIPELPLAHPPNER
Procedure: The binding affinities and kinetics between the humanized anti-hPD-L1 mAbs and the hPD-L1 protein were assessed with Biacore T200 (GE Healthcare Life Sciences). The hPD-L1 mIg protein was immobilized on the sensor chip CM5 by amine coupling. The parental and humanized antibodies were injected at a concentration gradient of 1, 2, 4, 8, 16, and 32 nM. Binding kinetic parameters, including association rate (Kₒₙ), dissociation rate (Koff), and affinity constant (KD) were determined by full kinetic analysis. […] As shown in Table 7 and FIG. 4, the antibodies with dissociation rates (Koff) from the lowest to the highest were: parental (PA200), H1+L2 (H12), H3+L2 (H32), H1+L1 (H11), H1+L3 (H13), H3+L1 (H31), H3+L3 (H33), H2+L2 (H22), H2+L1 (H21), and H2+L3 (H23).

hPD-L1mIg fusion protein [3] = target: T2, hPD-L1mIg fusion protein; assay: BLI, ForteBio Octet RED96; biotin-labeled hPD-L1-mouse Fc on SA sensors, 1:1 model
Procedure: All samples were prepared in PBS buffer (pH=7.4). The biotin-labeled hPD-L1-mouse Fc fusion protein was loaded onto SA sensors at a pre-determined loading threshold. scFv (PD-L1) was applied to the sensors at a concentration gradient of 3.125 nM-50 nM. Background subtraction was used to correct for sensor drifting. The data was fit to a 1:1 binding model using ForteBio's data analysis software in order to obtain the association (Kₒₙ) and dissociation (Koff) rates. The KD values were calculated based on Koff/Kₒₙ.

T1 sequence (Q9EP73 19-290): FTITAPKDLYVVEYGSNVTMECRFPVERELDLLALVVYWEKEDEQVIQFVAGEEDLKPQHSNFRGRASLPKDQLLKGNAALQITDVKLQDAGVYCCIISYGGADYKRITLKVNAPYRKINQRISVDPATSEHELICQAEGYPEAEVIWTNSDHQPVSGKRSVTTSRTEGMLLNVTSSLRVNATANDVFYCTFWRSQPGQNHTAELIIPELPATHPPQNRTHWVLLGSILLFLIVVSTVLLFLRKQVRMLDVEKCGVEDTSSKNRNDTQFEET

Row | Binder | binding result [1] | Kd (hPD-L1mIg fusion protein [2]) | koff (hPD-L1mIg fusion protein [2]) | kon (hPD-L1mIg fusion protein [2]) | Kd (hPD-L1mIg fusion protein [3]) | koff (hPD-L1mIg fusion protein [3]) | kon (hPD-L1mIg fusion protein [3])
1 | anti-hPD-L1 mAb 5B7 (antibody, IgG1, V domains shown, also called anti hPD-L1 monoclonal antibody 5B7; anti-hPD-L1 monoclonal antibody) VH: EVQLQQSGAELVKPGASVKLSCTASGFNIKDTYMYWVKQRPEQGLECIGRIDPANDNTKYDPKFQGKATITADTSSNTAYVQLASLTSEDTAVYYCARAKNLLNYFDYWGQGTTLTVSS VL: DIQMTQSPSSLSASLGERVTLSCRASQEISGYLSWLQQKPDGTIKRLIYATSTLDSGVPKRFSGSRSGSDYSLTISSLESEDFADYYCLQYAIYPLTFGAGTKLELKR | binds | – | – | – | – | – | –
2 | anti-PD-L1 parental (mouse-human chimeric mAb) (antibody, human IgG1, kappa, V domains shown, its variable domains are the same; also called parental chimeric antibody; parental (PA200)) VH: EVQLQQSGAELVKPGASVKLSCTASGFNIKDTYMYWVKQRPEQGLECIGRIDPANDNTKYDPKFQGKATITADTSSNTAYVQLASLTSEDTAVYYCARAKNLLNYFDYWGQGTTLTVSS VL: DIQMTQSPSSLSASLGERVTLSCRASQEISGYLSWLQQKPDGTIKRLIYATSTLDSGVPKRFSGSRSGSDYSLTISSLESEDFADYYCLQYAIYPLTFGAGTKLELKR | – | 0.128 nM | 0.000118 s⁻¹ | 924000 M⁻¹ s⁻¹ | – | – | –
3 | parental humanized IgG1 positive control antibody (antibody, V domains shown, also called anti-PD-L1 IgG1; Anti-Human PD-L1 IgG1) VH: QVQLVQSGAEVKKPGASVKVSCKASGFNIKDTYMYWVRQAPGQGLEWMGRIDPANDNTKYAQKFQGRVTITADTSTSTAYMELSSLRSEDTAVYYCARAKNLLNYFDYWGQGTLVTVSS VL: DIQMTQSPSSLSASVGDRVTITCRASQEISGYLSWLQQKPGKAPKRLIYATSTLQSGVPSRFSGSRSGTDYTLTISSLQPEDFATYYCLQYAIYPLTFGQGTKLEIKR | – | – | – | – | 6.92 nM | 0.000225 s⁻¹ | 32600 M⁻¹ s⁻¹
4 | anti-PD-L1 HC1 + LC1 (antibody, V domains shown, Humanized antibody, Humanized VH 1 + Humanized VL 1; also called H1+L1; H11) VH: QVQLVQSGAEVKKPGASVKVSCKASGFNIKDTYMYWVRQAPGQGLEWMGRIDPANDNTKYAQKFQGRVTITADTSTSTAYMELSSLRSEDTAVYYCARAKNLLNYFDYWGQGTLVTVSS VL: DIQMTQSPSSLSASVGDRVTITCRASQEISGYLSWYQQKPGKAPKRLIYATSTLDSGVPSRFSGSGSGTDFTLTISSLQPEDFATYYCLQYAIYPLTFGQGTKLEIKR | – | 1.38 nM | 0.0012 s⁻¹ | 869000 M⁻¹ s⁻¹ | – | – | –
5 | anti-PD-L1 HC1 + LC3 (antibody, V domains shown, Humanized antibody, Humanized VH 1 + Humanized VL 3; also called H1+L3; H13) VH: QVQLVQSGAEVKKPGASVKVSCKASGFNIKDTYMYWVRQAPGQGLEWMGRIDPANDNTKYAQKFQGRVTITADTSTSTAYMELSSLRSEDTAVYYCARAKNLLNYFDYWGQGTLVTVSS VL: DIQMTQSPSSLSASVGDRVTITCRASQEISGYLSWYQQKPGKAPKRLIYATSTLDSGVPSRFSGSRSGSDYTLTISSLQPEDFATYYCLQYAIYPLTFGQGTKLEIKR | – | 1.3 nM | 0.00143 s⁻¹ | 1.1e+06 M⁻¹ s⁻¹ | – | – | –
6 | anti-PD-L1 HC2 + LC1 (antibody, V domains shown, Humanized antibody, Humanized VH 2 + Humanized VL 1; also called H2+L1; H21) VH: QVQLVQSGAEVKKPGASVKVSCKASGFNIKDTYMYWVRQAPGQGLEWIGRIDPANDNTKYAPKFQGRVTITADTSTNTAYMELSSLRSEDTAVYYCARAKNLLNYFDYWGQGTLVTVSS VL: DIQMTQSPSSLSASVGDRVTITCRASQEISGYLSWYQQKPGKAPKRLIYATSTLDSGVPSRFSGSGSGTDFTLTISSLQPEDFATYYCLQYAIYPLTFGQGTKLEIKR | – | 2.18 nM | 0.00406 s⁻¹ | 1.86e+06 M⁻¹ s⁻¹ | – | – | –
7 | anti-PD-L1 HC2 + LC2 (antibody, V domains shown, Humanized antibody, Humanized VH 2 + Humanized VL 2; also called H2+L2; H22) VH: QVQLVQSGAEVKKPGASVKVSCKASGFNIKDTYMYWVRQAPGQGLEWIGRIDPANDNTKYAPKFQGRVTITADTSTNTAYMELSSLRSEDTAVYYCARAKNLLNYFDYWGQGTLVTVSS VL: DIQMTQSPSSLSASVGDRVTITCRASQEISGYLSWLQQKPGKAPKRLIYATSTLQSGVPSRFSGSRSGTDYTLTISSLQPEDFATYYCLQYAIYPLTFGQGTKLEIKR | – | 1.23 nM | 0.00251 s⁻¹ | 2.05e+06 M⁻¹ s⁻¹ | – | – | –
8 | anti-PD-L1 HC2 + LC3 (antibody, V domains shown, Humanized antibody, Humanized VH 2 + Humanized VL 3; also called H2+L3; H23) VH: QVQLVQSGAEVKKPGASVKVSCKASGFNIKDTYMYWVRQAPGQGLEWIGRIDPANDNTKYAPKFQGRVTITADTSTNTAYMELSSLRSEDTAVYYCARAKNLLNYFDYWGQGTLVTVSS VL: DIQMTQSPSSLSASVGDRVTITCRASQEISGYLSWYQQKPGKAPKRLIYATSTLDSGVPSRFSGSRSGSDYTLTISSLQPEDFATYYCLQYAIYPLTFGQGTKLEIKR | – | 1.84 nM | 0.00417 s⁻¹ | 2.26e+06 M⁻¹ s⁻¹ | – | – | –
9 | anti-PD-L1 HC3 + LC1 (antibody, V domains shown, Humanized antibody, Humanized VH3 + Humanized VL 1; also called H3+L1; H31) VH: EVQLVQSGAEVKKPGASVKVSCKASGFNIKDTYMYWVRQAPGQGLEWMGRIDPANDNTKYAQKFQGRVTITADTSTNTAYMELSSLRSEDTAVYYCARAKNLLNYFDYWGQGTLVTVSS VL: DIQMTQSPSSLSASVGDRVTITCRASQEISGYLSWYQQKPGKAPKRLIYATSTLDSGVPSRFSGSGSGTDFTLTISSLQPEDFATYYCLQYAIYPLTFGQGTKLEIKR | – | 1.17 nM | 0.00146 s⁻¹ | 1.25e+06 M⁻¹ s⁻¹ | – | – | –
10 | anti-PD-L1 HC3 + LC2 (antibody, V domains shown, Humanized antibody, Humanized VH3 + Humanized VL 2; also called H3+L2; H32) VH: EVQLVQSGAEVKKPGASVKVSCKASGFNIKDTYMYWVRQAPGQGLEWMGRIDPANDNTKYAQKFQGRVTITADTSTNTAYMELSSLRSEDTAVYYCARAKNLLNYFDYWGQGTLVTVSS VL: DIQMTQSPSSLSASVGDRVTITCRASQEISGYLSWLQQKPGKAPKRLIYATSTLQSGVPSRFSGSRSGTDYTLTISSLQPEDFATYYCLQYAIYPLTFGQGTKLEIKR | – | 0.666 nM | 0.0011 s⁻¹ | 1.65e+06 M⁻¹ s⁻¹ | – | – | –
11 | anti-PD-L1 HC3 + LC3 (antibody, V domains shown, Humanized antibody, Humanized VH3 + Humanized VL 3; also called H3+L3; H33) VH: EVQLVQSGAEVKKPGASVKVSCKASGFNIKDTYMYWVRQAPGQGLEWMGRIDPANDNTKYAQKFQGRVTITADTSTNTAYMELSSLRSEDTAVYYCARAKNLLNYFDYWGQGTLVTVSS VL: DIQMTQSPSSLSASVGDRVTITCRASQEISGYLSWYQQKPGKAPKRLIYATSTLDSGVPSRFSGSRSGSDYTLTISSLQPEDFATYYCLQYAIYPLTFGQGTKLEIKR | – | 1 nM | 0.00146 s⁻¹ | 1.46e+06 M⁻¹ s⁻¹ | – | – | –
12 | anti-PD-L1 HC1 + LC2 (antibody, V domains shown, Humanized antibody, Humanized VH 1 + Humanized VL 2; also called H1+L2; H12) VH: QVQLVQSGAEVKKPGASVKVSCKASGFNIKDTYMYWVRQAPGQGLEWMGRIDPANDNTKYAQKFQGRVTITADTSTSTAYMELSSLRSEDTAVYYCARAKNLLNYFDYWGQGTLVTVSS VL: DIQMTQSPSSLSASVGDRVTITCRASQEISGYLSWLQQKPGKAPKRLIYATSTLQSGVPSRFSGSRSGTDYTLTISSLQPEDFATYYCLQYAIYPLTFGQGTKLEIKR | – | 0.557 nM | 0.000811 s⁻¹ | 1.46e+06 M⁻¹ s⁻¹ | – | – | –
